What all share (test): EMSA
(Mobility shift assays separate free from complexed probe on a gel.)

In series [1] the target is T1, GlnR (Streptococcus pneumoniae D39) (UniProt A0A0H2ZRB1).
T1 sequence: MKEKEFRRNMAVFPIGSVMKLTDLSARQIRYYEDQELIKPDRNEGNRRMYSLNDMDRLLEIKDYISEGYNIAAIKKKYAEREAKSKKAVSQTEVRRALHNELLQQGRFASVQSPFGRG
To be noted: 5X FY buffer: 20 mM Tris-HCl pH 7.5, 30 mM KCl, 1 mM DTT, 1 mM EDTA, 10% glycerol; room temperature 20 min, 20 ul, ~30 ng DNA, 0.1-0.5 uM protein; 8%.

Series [2] has as its target CcpA (Streptococcus pneumoniae D39) (UniProt A0A0H2ZQ65). To be noted: 5X FY buffer: 20 mM Tris-HCl pH 7.5, 30 mM KCl, 1 mM DTT, 1 mM EDTA, 10% glycerol; room temperature 20 min, 20 ul, ~30 ng DNA, 0.1-0.5 uM protein; 8%.
For series [3], the target named is T2, GntR (Streptococcus pneumoniae D39) (UniProt A0A0H2ZQS8).
T2 sequence: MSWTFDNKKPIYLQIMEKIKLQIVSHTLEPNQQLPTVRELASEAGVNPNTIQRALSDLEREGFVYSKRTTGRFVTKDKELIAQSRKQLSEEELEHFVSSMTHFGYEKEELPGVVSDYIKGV
The settings on record: 5X FY buffer: 20 mM Tris-HCl pH 7.5, 30 mM KCl, 1 mM DTT, 1 mM EDTA, 10% glycerol; room temperature 20 min, 20 ul, ~30 ng DNA, 0.1-0.5 uM protein; 8%.

Series [4] relates to GlnR (Streptococcus pneumoniae D39). To be noted: 5X FY buffer: 20 mM Tris-HCl pH 7.5, 30 mM KCl, 1 mM DTT, 1 mM EDTA, 10% glycerol, room temperature 20 min, 20 ul, ~30 ng DNA, 0.1-0.5 uM protein, 8%.
Series [5] concerns CcpA (Streptococcus pneumoniae D39). To be noted: 5X FY buffer: 20 mM Tris-HCl pH 7.5, 30 mM KCl, 1 mM DTT, 1 mM EDTA, 10% glycerol, room temperature 20 min, 20 ul, ~30 ng DNA, 0.1-0.5 uM protein, 8%.

Where “and” joins values, the source holds several entries; their conditions need not be identical. Identical values can stand only once.

As for “AAGTGCAAAATCCCTATTTTTACACTTTCTTTTCTAAAACAGTCTATATTTTATTTCAAACTGTATTATATTTTTGAAAAAAATAAAGTCCTTTT (double strand) [PpflB(cre1-)]”, the binding result in series [1] and in series [2] was “no binding” each time.
As to “ATGACAGAAGAAATCAAAAATCTGCAGGCACAGGATTATGATGCCAGTCAAATTCAAGTTTTAGAGGGCTTAGAGGCTGTTCGTATGCGTCCAGG (double strand) [gyrB]”, the binding entry in series [1] and in series [2] was “no binding” throughout.
A word on the Kd: it is the equilibrium constant for the complex coming apart. A low value points to tighter binding. Consider “CAGTTTGAAATAAAATATAGACTGTTTTAGAAAAGAAAGTGTAAAAATAGGGATTTTGCACTTGTTGAAATCGGTTACTTTATGGTATACTTGTC (double strand) [PpflB]”, for which the Kd in series [1] is 0.31 µM; in series [2], 1.27 µM and 0.35 µM. Moreover, the binding entry in series [3] was “binds”.
In the case of “GTGAAAATTTCGTTTTCATATTTCTACTTATTCCATTCTATCACTAATTGTAAACACTTTCAAGTGTTTTTTGAAGATTGATTGAAAAAATTTCA (double strand) [PccpA]”, the binding entry is “binds” in series [1], “no binding” in series [3] and “binds” in series [2].
With “GTTACCTTCCTTGAAAACGTTTTATAGTTTTATTATATCACGACTTGAAGGAAAAACAAGATTTTTGCCTATTTTTTAGAAAGCAATCTGTTTTTC (double strand) [PpflA]”, the binding result is “binds” in series [1], “no binding” in series [3] and “binds” in series [2].
On to PpflB, for which the Kd in series [4] (10 mM sodium formate) turned out to be 0.79 µM; in series [4] (no formate) it was 0.31 µM; in series [5] (10 mM sodium formate), 0.35 µM; in series [5] (no formate) it was 1.27 µM.
For the substance “TAATCTGATGATAGATTGAAAATGAAATTGAAAAACAGATTGCTTTCTAAAAAATAGGCAAAAATCTTGTTTTTCCTTCAAGTCGTGATATAATAA (double strand) [PpflA(cre1-)]”, the binding result in series [1] and in series [2] was “binds more weakly” in each case.

Values taken from publication PMC5327383, “Pneumococcal galactose catabolism is controlled by multiple regulators acting on pyruvate formate lyase” (Scientific Reports, 2017).
